Here are results for 6 molecules from US20220185900A1 (Regeneron, published 2022).

Assay [1] deals with T1, hRET.mmh (human, UniProt P07949 29-635, biotinylated in the ELISA of Example 4 (biot-hRET.mmh); not in the SPR of Example 3).
T1 construct: also called biot-hRET.mmh; soluble monomeric human RET
Kind of assay: SPR Biacore T200, mAb capture, 37 C. The procedure:
(§1) Binding affinities and kinetic constants of human anti-RET antibodies were determined by surface plasmon resonance (Biacore T200) at […] (Tables 2-3). […] Binding equilibrium dissociation constants (KD) and dissociative half-lives (t_{1/2}) were calculated from the kinetic rate constants as: KD [M]=kd/kₐ; and t_{1/2}(min)=(ln2/(60*kd). Calculations were performed using BiacoreT200 evaluation software v1.0.
On the technique in general: In SPR one partner is held on a chip, and binding of the other changes the refractive index at the surface.

For assay [2], the target named is T2, Macaca fascicularis (mf) RET.mmh (Macaca fascicularis).
T2 construct: also called monkey RET
T2 chain: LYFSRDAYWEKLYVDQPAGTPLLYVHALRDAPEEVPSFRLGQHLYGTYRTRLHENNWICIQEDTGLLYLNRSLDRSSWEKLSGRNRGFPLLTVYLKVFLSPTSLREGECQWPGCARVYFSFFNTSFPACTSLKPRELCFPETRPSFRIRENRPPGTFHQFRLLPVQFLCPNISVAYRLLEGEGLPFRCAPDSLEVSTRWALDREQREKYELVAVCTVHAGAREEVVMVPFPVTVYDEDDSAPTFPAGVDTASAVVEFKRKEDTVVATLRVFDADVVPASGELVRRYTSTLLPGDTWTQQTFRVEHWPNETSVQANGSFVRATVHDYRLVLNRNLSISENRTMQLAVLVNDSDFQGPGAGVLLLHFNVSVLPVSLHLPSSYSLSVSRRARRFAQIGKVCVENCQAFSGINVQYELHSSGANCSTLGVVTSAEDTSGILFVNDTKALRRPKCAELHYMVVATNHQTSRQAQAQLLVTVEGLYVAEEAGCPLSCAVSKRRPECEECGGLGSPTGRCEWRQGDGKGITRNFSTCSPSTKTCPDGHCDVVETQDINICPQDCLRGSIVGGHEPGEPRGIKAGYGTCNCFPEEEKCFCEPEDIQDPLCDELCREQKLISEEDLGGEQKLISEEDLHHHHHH
The assay can be described thus: SPR Biacore T200, mAb capture, 37 C. The procedure:
as §1

In assay [3] the target is T3, hRET.mFc (human).
T3 construct: also called dimeric human RET
Kind of assay: SPR Biacore T200, mAb capture, 37 C. On the procedure:
as §1

Assay [4] has as its target T1, hRET.mmh. The assay can be described thus: SPR Biacore T200, mAb capture, 25 C. On the procedure: as §1
Assay [5] deals with T2, Macaca fascicularis (mf) RET.mmh. Kind of assay: SPR Biacore T200, mAb capture, 25 C. On the procedure:
as §1

In assay [6] the target is T3, hRET.mFc. The assay can be described thus: SPR Biacore T200, mAb capture, 25 C. The procedure:
as §1

Assay [7] addresses T1, hRET.mmh. Kind of assay: competition sandwich ELISA: 1 nM biot-hRET.mmh + antibody, plate-coated GDNF/GFRα1 co-complex. On the procedure: The ability of anti-RET antibodies to block the binding of human RET to pre-complexed plate bound GDNF:GFRα1 was assessed using a competition sandwich ELISA.
Antibody-RET mixtures were incubated for 1 hour at RT and then transferred to microtiter plates previously coated with the hGDNF/hGFRα1 co-complex. Binding was allowed to proceed for 1 hr at RT followed by extensive washing. […] Plates were read at 450 nm and data analysis used a sigmoidal dose-response model within Prism™ software.
The absorbance values of the wells containing the highest concentration for each antibody were used to determine the blocking percent at maximum concentration antibody tested.
In general terms: ELISA stands for enzyme-linked immunosorbent assay.

In general, Kd refers to the equilibrium constant for the complex coming apart. Read a high Kd as weaker binding. What is called koff is the rate constant with which the complex falls apart. In general, kon refers to the second-order rate constant of association. Lower therefore signals slow association. The term t½ denotes the time needed for the level to fall by half in the phase considered. Read a low t½ as fast loss. The term IC50 denotes the concentration at which inhibition is half-maximal.

B1: H4H8084P (antibody, human IgG4, V domains shown)
VH: QVQLVESGGGVVQPGRSLRLSCEASGFTFRNYGMHWVRQAPGKGLDWVSTIYYDGSDEYYSDSVKGRFTISRDNSKNTLYLQMNSLRAEDTAVYYCARDPPSFRYFDYWGQGTLVTVSS
VL: DIQMTQSPSTLSASVGDRVTITCRASQSIRSWLTWYQQKPGKAPKVLIYKASTLERGVPSRFSGSGSGTEFTLTISSLQPEDFATYYCHQYSSYSYTFGQGTKLEIK
notes: human IgG4 Fc (H4H prefix)
Regarding B1, the Kd in assay [1] was found to be 1.56 nM; in assay [2], 1.76 nM; in assay [3] it was 0.809 nM; in assay [4], 0.518 nM; in assay [5], 0.565 nM; in assay [6], 0.284 nM. For the same molecule, the koff in assay [1] was 0.00165 s⁻¹; in assay [2] it was 0.00178 s⁻¹; in assay [3] it was 0.00085 s⁻¹; in assay [4], 0.000375 s⁻¹; in assay [5], 0.000393 s⁻¹; in assay [6], 0.000204 s⁻¹. Further, the kon in assay [1] was 1.06e+06 M⁻¹ s⁻¹; in assay [2], 1.01e+06 M⁻¹ s⁻¹; in assay [3], 1.05e+06 M⁻¹ s⁻¹; in assay [4], 723000 M⁻¹ s⁻¹; in assay [5], 695000 M⁻¹ s⁻¹; in assay [6], 720000 M⁻¹ s⁻¹. For the same molecule, the t½ in assay [1] is 7 min; in assay [2] it was 6 min; in assay [3], 14 min; in assay [4], 31 min; in assay [5], 29 min; in assay [6], 57 min. Also, the “% Max Blocking” value in assay [7] turned out to be 96%. Further, in assay [7], the IC50 was less than 0.25 nM.

B2: H4H8080P (antibody, human IgG4, V domains shown)
VH: EVQLVESGGGLVQSGGSLRLSCVASGFTFSTYAMTWVRQAPGRGLEWVSAISGSGASTYYADSLKGRFTVSRDNSKNTLYLQMNSLRAEDTAVYYCSKDHRNYDSDYDMDVWGQGTTVTVSS
VL: DIQMTQSPSSLSASVGDRVTITCRASQGIRNYLGWYQQKPGKAPKRLIYTASSLQSGVPSRFRGSGSGTEFTLTISSLQPEDFATYYCLQHNSYPYTFGQGTKLEIK
notes: human IgG4 Fc (H4H prefix)
For the molecule B2, in assay [1], the Kd amounted to 9.35 nM, the koff was determined as 0.00267 s⁻¹, the association rate constant (kon) is 285000 M⁻¹ s⁻¹ and the t½ is 4 min. Also, in assay [3], the Kd was found to be 3.98 nM, the koff was 0.00107 s⁻¹, the kon amounted to 269000 M⁻¹ s⁻¹ and the t½ amounted to 11 min. In assay [4], the affinity, expressed as Kd, was 2.38 nM; the dissociation rate constant (koff) amounted to 0.000502 s⁻¹; the kon was 211000 M⁻¹ s⁻¹; the t½ was 23 min. Moreover, the binding result in assay [5] was “no binding”. In assay [6], this molecule displayed a Kd of 1.32 nM, a koff of 0.000242 s⁻¹, a kon of 183000 M⁻¹ s⁻¹ and a t½ of 48 min. For the same molecule, in assay [7], the “% Max Blocking” value turned out to be 82% and the IC50 was less than 0.25 nM.

B3: H4H8083P (antibody, human IgG4, V domains shown)
VH: QVQLVESGGGVVQPGRSLRLSCAASGFTFNNYVMHWVRQAPGKGLEWVALIWYDGSNKYYADSVKGRFTISRDNSKNALNLQMNSLRAEDTAVYFCARVSIAARNYYYGGLDVWGQGTTVTVSS
VL: EIVLTQSPGTLSLSPGERATLSCRASQSVSSTYLAWYQQKPGQAPRLLIYGASSRATGIPDRFSGSGSGTDFTLTISRLEPEDFAVYYCQHYGGSPLTFGGGTKVEIK
notes: human IgG4 Fc (H4H prefix)
For the molecule B3, the Kd in assay [1] is 9.04 nM; in assay [2], 14.2 nM; in assay [3], 3.02 nM; in assay [4], 2.52 nM; in assay [5] it was 3.44 nM; in assay [6] it was 1.14 nM. The koff in assay [1] turned out to be 0.00255 s⁻¹; in assay [2] it was 0.004 s⁻¹; in assay [3], 0.0008 s⁻¹; in assay [4] it was 0.000484 s⁻¹; in assay [5], 0.000711 s⁻¹; in assay [6] it was 0.000224 s⁻¹. Besides, the kon in assay [1] was 282000 M⁻¹ s⁻¹; in assay [2], 283000 M⁻¹ s⁻¹; in assay [3], 264000 M⁻¹ s⁻¹; in assay [4], 192000 M⁻¹ s⁻¹; in assay [5], 207000 M⁻¹ s⁻¹; in assay [6], 197000 M⁻¹ s⁻¹. In addition, the t½ in assay [1] worked out at 5 min; in assay [2], 3 min; in assay [3], 14 min; in assay [4], 24 min; in assay [5] it was 16 min; in assay [6], 52 min. The “% Max Blocking” value in assay [7] turned out to be 95%. For the same molecule, the IC50 in assay [7] was less than 0.25 nM.

B4: H4H8066P (antibody, human IgG4, V domains shown)
VH: EVQLVESGGGLVQPGGSLRLSCEASGFTFSRYAMTWVRQAPGKGLEWVSGISGSGGSTFYVDSLQGRFTLSRDNSKHTLFLQMNSLRAEDTAIYYCAKENTYGHFDYWGQGTLVTVSS
VL: DIQLTQSPSFLSASVGDRVTITCWASQDISTYLAWYQQKPGKAPQVLIYAASSLQYGVPSRFSGSGSGTEFTLTITSLQPEDFATYYCQQLIGYPYIFGQGTKLEIK
notes: human IgG4 Fc (H4H prefix)
Take B4: the Kd in assay [1] stood at 5.43 nM; in assay [2], 39.4 nM; in assay [3], 1.28 nM; in assay [4], 2.02 nM; in assay [5], 13.7 nM; in assay [6], 0.58 nM. In addition, the koff in assay [1] was 0.00106 s⁻¹; in assay [2], 0.00323 s⁻¹; in assay [3], 0.000335 s⁻¹; in assay [4], 0.000257 s⁻¹; in assay [5], 0.000882 s⁻¹; in assay [6], 0.00012 s⁻¹. The kon in assay [1] was 195000 M⁻¹ s⁻¹; in assay [2] it was 81900 M⁻¹ s⁻¹; in assay [3], 262000 M⁻¹ s⁻¹; in assay [4], 127000 M⁻¹ s⁻¹; in assay [5], 64300 M⁻¹ s⁻¹; in assay [6] it was 207000 M⁻¹ s⁻¹. Further, the t½ is 11 min in assay [1]; 4 min in assay [2]; 34 min in assay [3]; 45 min in assay [4]; 13 min in assay [5]; 96 min in assay [6]. For the same molecule, in assay [7], the “% Max Blocking” value came out at 57%. Besides, the half-maximal inhibitory concentration (IC50) in assay [7] turned out to be 0.41 nM.

B5: H2M7086N (antibody, mouse IgG2, V domains shown)
VH: QVQLVESGGGVVQPGRSLRLSCVVSGFTFSNYGMHWVRQGPGRGLEWLALIWYDGSDKYYAESVRGRFTISRDNSKNTVYLQMNSLRAEDTAMYYCTRDRIFDYWGQGTLVTVSS
VL: AIQMTQSPSSLSASVGDRVTITCRASQDIRNDLGWYQHNPGKAPNLLIYAASTLQIGVPSRFRGSGSGTDFTLTISSLQPEDFATYYCLQDFDYPLSFGGGTKVEIR
notes: human variable domains with mouse IgG2 Fc (H2M prefix)
As for B5, in assay [7], the “% Max Blocking” value came out at 96% and the concentration for half-maximal inhibition (IC50) was determined as 0.33 nM.

B6: H4H7086N (antibody, human IgG4, V domains shown)
VH: QVQLVESGGGVVQPGRSLRLSCVVSGFTFSNYGMHWVRQGPGRGLEWLALIWYDGSDKYYAESVRGRFTISRDNSKNTVYLQMNSLRAEDTAMYYCTRDRIFDYWGQGTLVTVSS
VL: AIQMTQSPSSLSASVGDRVTITCRASQDIRNDLGWYQHNPGKAPNLLIYAASTLQIGVPSRFRGSGSGTDFTLTISSLQPEDFATYYCLQDFDYPLSFGGGTKVEIR
notes: human IgG4 Fc form of 7086N; also called H4H7086P
Take B6: in assay [7], the “% Max Blocking” value amounted to 97% and the IC50 turned out to be 0.39 nM.
